Reference: patent publication US12042530B2, “Target peptides for immunotherapy and diagnostics” (University of Virginia Patent Foundation, priority 2012, dated 2024)
Non-standard residues stand in square brackets, D forms with d. No end group written: not given here. pT = C[C@@H](OP(=O)(O)O)[C@H](N)C(=O)O; pS = N[C@@H](COP(=O)(O)O)C(=O)O

Legend:
[1] = biological target: T1, HLA-B*0702 (HLA-B7) peptide complexes (Homo sapiens, UniProt P01889); assay: HLA-B*0702 phosphopeptides associated with leukemia samples (isolation of HLA-associated peptides); conditions: for Copies/cell class, ALL1: acute lymphoblastic leukemia sample ALL1; for Copies/cell class, HCL1: hairy cell leukemia sample HCL1; for Copies/cell class, B Cell: healthy B cells; for Copies/cell class, T Cell: healthy T cells
T1 construct: endogenous in cells; host or cells: JY B-lymphoblastoid line; primary ALL, CLL, HCL, AML samples; bone marrow; healthy B and T cells
Excerpt: To identify naturally processed tumor-associated phosphopeptides, HLA-A*0201 (HLA-A2) and HLA-B*0702 (HLA-B7) peptide complexes from four (4) chronic lymphocytic leukemia (CLL) tumor samples, a mantle cell lymphoma sample (MCL), one acute lymphoblastic leukemia (ALL), and an acute myeloid leukemia (AML) sample, in addition to healthy splenic T and B-cells and the cultured lymphoblastoid cell line JY were isolated. These efforts yielded 10 HLA-A2-restricted and 86 HLA-B7-restricted phosphopeptide antigens (see Tables 6 and 7).
All cell lines were grown at 37° C. with 5% CO2 in growth medium consisting of RPMI 1640 supplemented with 10% FCS and two mM L-glutamine. Blood or leukapheresis samples were taken from patients with high-burden leukemia in heparin. Tumor cells were recovered by layering the blood over density gradient (Ficoll) and collecting the tumor layer following centrifugation. The tumor was washed in tris-buffered saline (TBS). The purity of the tumor was assessed using flow cytometry and was >98% pure in all cases. For healthy T and B-cell populations, a normal spleen sample processed and tonsil sample was collected and lymphocytes released through mechanical disruption. Mononuclear cells were isolated using a density gradient and 10^9 T cells isolated using anti-CD19 or anti-CD3 microbeads (Miltenyi Biotec Inc., Auburn, California, United States of America) with purity >98% were obtained. Bone marrow sample was obtained from an elective orthopedic procedure and red cell-depleted using hypotonic lysis. This sample was not processed further.
Class I MHC molecules were immunoaffinity purified from the JY cell line or from primary tumor samples, and their associated peptides were extracted as previously described in Zarling et al., 2006. Approximately 1.2-14×10^9 cells were lysed in a solution containing 20 mM Tris-HCl (pH 8.0), 150 mM NaCl, 1% CHAPS, one mM PMSF, five μg/mL aprotinin, 10 μg/mL leupeptin, 10 μg/mL pepstatin A, 1 μg/ml calyculin A, and phosphatase inhibitor (cocktails I and II; Sigma-Aldrich). The mixture was subjected to centrifugation and the resulting supernatant was passed over protein A sepharose pre-loaded with the HLA-A2-specific antibody BB7.2 or HLA-B7-specific antibody MEL Peptides were eluted from the purified class I MHC molecules with 10% acetic acid.

HLA-B*0702 = biological target: T2, HLA-B*0702 (Homo sapiens, UniProt P01889); assay: Phosphopeptides presented in association with class I molecules (HLA-B*0702) on cancer cells: melanoma and/or leukemia; parameters: key: Melanoma (M); Leukemia (L); L/M: Melanoma (M) and/or Leukemia (L); conditions: cancer type on which the HLA-B*0702 phosphopeptide is presented
T2 construct: endogenous in cells; host or cells: melanoma and/or leukemia cells

Row | Substance | Copies/cell class, AML1 [1] | L/M (HLA-B*0702) | Copies/cell class, CLL2 [1] | Copies/cell class, JY [1] | Copies/cell class, ALL1 [1] | Copies/cell class, HCL1 [1] | Copies/cell class, B Cell [1] | Copies/cell class, T Cell [1] | Copies/cell class, CLL4 [1] | Copies/cell class, BM ([1]; healthy bone marrow)
1 | 330 (RPR[pS]AVLL; listed as Homo sapiens) [compound 330] | 2 (2 indicates 1-5 copies/cell) | L |  |  |  |  |  |  |  | 
2 | 331 (RPR[pS]LEVTI; listed as Homo sapiens) [compound 331] | 1 (1 indicates <1 copy/cell) | L |  |  |  |  |  |  |  | 
3 | 333 (RPR[pS]PAARL; listed as Homo sapiens) [compound 333] | 1 (1 indicates <1 copy/cell) | L |  |  |  |  |  |  |  | 
4 | 342 (RPSRS[pS]PGL; listed as Homo sapiens) [compound 342] | 2 (2 indicates 1-5 copies/cell) | L |  |  |  |  |  |  |  | 
5 | 343 (RPS[pS]LPDL; listed as Homo sapiens) [compound 343] | 2 (2 indicates 1-5 copies/cell) | L | 2 (2 indicates 1-5 copies/cell) | 3 (3 indicates 6-25 copies per cell) | 4 (4 indicates >25 copies per cell) | 1 (1 indicates <1 copy/cell) | 3 (3 indicates 6-25 copies per cell) | 4 (4 indicates >25 copies per cell) |  | 
6 | 347 (RPV[pS]PFQEL; listed as Homo sapiens) [compound 347] | 2 (2 indicates 1-5 copies/cell) | L | 2 (2 indicates 1-5 copies/cell) | 4 (4 indicates >25 copies per cell) | 3 (3 indicates 6-25 copies per cell) | 3 (3 indicates 6-25 copies per cell) | 3 (3 indicates 6-25 copies per cell) | 3 (3 indicates 6-25 copies per cell) | 2 (2 indicates 1-5 copies/cell) | 
7 | 348 (RPV[pS]PGKDI; listed as Homo sapiens) [compound 348] |  | L |  |  | 1 (1 indicates <1 copy/cell) |  |  |  |  | 
8 | 350 (RPW[pS]PAVSA; listed as Homo sapiens) [compound 350] |  | L |  | 1 (1 indicates <1 copy/cell) | 1 (1 indicates <1 copy/cell) | 1 (1 indicates <1 copy/cell) |  |  |  | 
9 | 356 (RRS[pS]LDAEIDSL; listed as Homo sapiens) [compound 356] | 1 (1 indicates <1 copy/cell) | L |  |  |  |  |  |  |  | 
10 | 358 (RSE[pS]KDRKL; listed as Homo sapiens) [compound 358] |  | L |  |  | 1 (1 indicates <1 copy/cell) |  |  |  |  | 
11 | 359 (RSG[pS]LERKV; listed as Homo sapiens) [compound 359] |  | L |  |  | 1 (1 indicates <1 copy/cell) |  |  |  |  | 
12 | 360 (RSL[pS]PGGAA; listed as Homo sapiens) [compound 360] |  | L |  |  | 1 (1 indicates <1 copy/cell) |  |  |  |  | 
13 | 363 (RTE[pS]DSGLKK; listed as Homo sapiens) [compound 363] |  | L |  |  | 1 (1 indicates <1 copy/cell) |  |  |  |  | 
14 | 370 (SPGLARKR[pS]L; listed as Homo sapiens) [compound 370] | 1 (1 indicates <1 copy/cell) | L |  |  |  |  |  |  |  | 

Further lines, results first:

Row | Copies/cell class, AML1 [1] | L/M (HLA-B*0702) | Copies/cell class, CLL2 [1] | Copies/cell class, JY [1] | Copies/cell class, ALL1 [1] | Copies/cell class, HCL1 [1] | Copies/cell class, B Cell [1] | Copies/cell class, T Cell [1] | Copies/cell class, CLL4 [1] | Copies/cell class, BM ([1]; healthy bone marrow) | Substance
15 | 1 (1 indicates <1 copy/cell) | L |  |  |  |  |  |  |  |  | 328 (RPRPV[pS]PSSL; listed as Homo sapiens) [compound 328]
16 | 1 (1 indicates <1 copy/cell) | L |  |  |  |  |  |  |  |  | 334 (RPR[pS]PGSNSKV; listed as Homo sapiens) [compound 334]
17 | 2 (2 indicates 1-5 copies/cell) | L |  |  |  |  |  |  |  |  | 336 (RPR[pS]PRQNSI; listed as Homo sapiens) [compound 336]
18 | 2 (2 indicates 1-5 copies/cell) | L |  |  |  |  |  |  |  |  | 337 (RPR[pS]PSPIS; listed as Homo sapiens) [compound 337]
19 | 4 (4 indicates >25 copies per cell) | L |  |  |  |  |  |  |  |  | 338 (RPR[pS]PTGP; listed as Homo sapiens) [compound 338]
20 | 2 (2 indicates 1-5 copies/cell) | L |  |  |  |  |  |  |  |  | 339 (RPR[pS]PTGP[pS]NSF; listed as Homo sapiens) [compound 339]
21 | 1 (1 indicates <1 copy/cell) | L | 1 (1 indicates <1 copy/cell) |  | 1 (1 indicates <1 copy/cell) | 1 (1 indicates <1 copy/cell) |  |  | 1 (1 indicates <1 copy/cell) |  | 344 (RP[pS]SPALYF; listed as Homo sapiens) [compound 344]
22 | 2 (2 indicates 1-5 copies/cell) | L | 2 (2 indicates 1-5 copies/cell) | 4 (4 indicates >25 copies per cell) | 2 (2 indicates 1-5 copies/cell) | 2 (2 indicates 1-5 copies/cell) | 2 (2 indicates 1-5 copies/cell) |  | 2 (2 indicates 1-5 copies/cell) |  | 346 (RPT[pS]RLNRL; listed as Homo sapiens) [compound 346]
23 |  | L | 2 (2 indicates 1-5 copies/cell) | 4 (4 indicates >25 copies per cell) | 4 (4 indicates >25 copies per cell) | 1 (1 indicates <1 copy/cell) | 2 (2 indicates 1-5 copies/cell) | 2 (2 indicates 1-5 copies/cell) |  |  | 349 (RPV[pT]PVSDL; listed as Homo sapiens) [compound 349]
24 | 2 (2 indicates 1-5 copies/cell) | L |  | 2 (2 indicates 1-5 copies/cell) | 2 (2 indicates 1-5 copies/cell) |  | 2 (2 indicates 1-5 copies/cell) | 2 (2 indicates 1-5 copies/cell) |  |  | 351 (RPY[pS]PPFFSL; listed as Homo sapiens) [compound 351]
25 | 4 (4 indicates >25 copies per cell) | L |  |  |  |  |  |  |  |  | 352 (RRK[pS]QVAEL; listed as Homo sapiens) [compound 352]
26 |  | L |  |  | 2 (2 indicates 1-5 copies/cell) |  | 1 (1 indicates <1 copy/cell) | 1 (1 indicates <1 copy/cell) |  |  | 361 (RSL[pS]PLLF; listed as Homo sapiens) [compound 361]
27 | 2 (2 indicates 1-5 copies/cell) | L |  |  |  |  |  |  |  |  | 366 (RVR[pS]PTRSP; listed as Homo sapiens) [compound 366]
28 |  | L | 1 (1 indicates <1 copy/cell) | 4 (4 indicates >25 copies per cell) | 1 (1 indicates <1 copy/cell) | 1 (1 indicates <1 copy/cell) |  |  | 1 (1 indicates <1 copy/cell) |  | 367 (SPA[pS]PKISL; listed as Homo sapiens) [compound 367]
29 | 1 (1 indicates <1 copy/cell) | L |  |  |  |  |  |  |  |  | 368 (SPEKAGRR[pS]SL; listed as Homo sapiens) [compound 368]
30 | 1 (1 indicates <1 copy/cell) | L | 3 (3 indicates 6-25 copies per cell) | 4 (4 indicates >25 copies per cell) | 1 (1 indicates <1 copy/cell) | 2 (2 indicates 1-5 copies/cell) |  | 1 (1 indicates <1 copy/cell) | 3 (3 indicates 6-25 copies per cell) | 1 (1 indicates <1 copy/cell) | 371 (SPK[pS]PGLKA; listed as Homo sapiens) [compound 371]
31 | 4 (4 indicates >25 copies per cell) | L/M |  |  |  |  |  |  |  |  | 374 (SPRR[pS]RSISL; listed as Homo sapiens) [compound 374]
